Legend:
[1] = test system: TALEN L (L538), canonical RVDs (synthetic (Xanthomonas TALE scaffold)); test: cell_activity; details: cold shock
[2] = test system: TALEN L*, non-canonical RVDs (synthetic (Xanthomonas TALE scaffold)); test: cell_activity
[3] = test system: TALEN L 102002 (synthetic (Xanthomonas TALE scaffold)); test: cell_activity; details: K562, partner TALEN R
[4] = test system: TALEN L 102006 (synthetic (Xanthomonas TALE scaffold)); test: cell_activity; details: K562, partner TALEN R
[5] = test system: TALEN L 102010 (synthetic (Xanthomonas TALE scaffold)); test: cell_activity; details: K562, partner TALEN R
[6] = test system: TALEN L 102035 (synthetic (Xanthomonas TALE scaffold)); test: cell_activity; details: K562, partner TALEN R
[7] = test system: TALEN L 102038 (synthetic (Xanthomonas TALE scaffold)); test: cell_activity; details: K562, partner TALEN R
[8] = test system: TALEN L 102041 (synthetic (Xanthomonas TALE scaffold)); test: cell_activity; details: K562, partner TALEN R
[9] = test system: TALEN L 102043 (synthetic (Xanthomonas TALE scaffold)); test: cell_activity; details: K562, partner TALEN R
[10] = test system: TALEN L 102046 (synthetic (Xanthomonas TALE scaffold)); test: cell_activity; details: K562, partner TALEN R; 30.1 in Table 4
[11] = test system: TALEN L 102049 (synthetic (Xanthomonas TALE scaffold)); test: cell_activity; details: K562, partner TALEN R
[12] = test system: TALEN L 102052 (synthetic (Xanthomonas TALE scaffold)); test: cell_activity; details: K562, partner TALEN R
[13] = test system: TALEN L 102056 (synthetic (Xanthomonas TALE scaffold)); test: cell_activity; details: K562, partner TALEN R
[14] = test system: TALEN L 102066 (synthetic (Xanthomonas TALE scaffold)); test: cell_activity; details: K562, partner TALEN R
[15] = test system: TALEN L 102072 (synthetic (Xanthomonas TALE scaffold)); test: cell_activity; details: K562, partner TALEN R
[16] = test system: TALEN L 102075 (synthetic (Xanthomonas TALE scaffold)); test: cell_activity; details: K562, partner TALEN R
[17] = test system: TALEN L 102076 (synthetic (Xanthomonas TALE scaffold)); test: cell_activity; details: K562, partner TALEN R
[18] = test system: TALEN L 102077 (synthetic (Xanthomonas TALE scaffold)); test: cell_activity; details: K562, partner TALEN R
[19] = test system: TALEN L 102078 (synthetic (Xanthomonas TALE scaffold)); test: cell_activity; details: K562, partner TALEN R
[20] = test system: TALEN L 102083 (synthetic (Xanthomonas TALE scaffold)); test: cell_activity; details: K562, partner TALEN R
[21] = test system: TALEN L 102085 (synthetic (Xanthomonas TALE scaffold)); test: cell_activity; details: K562, partner TALEN R
[22] = test system: TALEN L 102202 (synthetic (Xanthomonas TALE scaffold)); test: cell_activity; details: K562, partner TALEN R
[23] = test system: TALEN L 102203 (synthetic (Xanthomonas TALE scaffold)); test: cell_activity; details: K562, partner TALEN R
[24] = test system: TALEN L 102204 (synthetic (Xanthomonas TALE scaffold)); test: cell_activity; details: K562, partner TALEN R
[25] = test system: TALEN L 102205 (synthetic (Xanthomonas TALE scaffold)); test: cell_activity; details: K562, partner TALEN R
[26] = test system: TALEN L 102206 (synthetic (Xanthomonas TALE scaffold)); test: cell_activity; details: K562, partner TALEN R
[27] = test system: TALEN L 102208 (synthetic (Xanthomonas TALE scaffold)); test: cell_activity; details: K562, partner TALEN R
[28] = test system: TALEN L 102209 (synthetic (Xanthomonas TALE scaffold)); test: cell_activity; details: K562, partner TALEN R
[29] = test system: TALEN L 102210 (synthetic (Xanthomonas TALE scaffold)); test: cell_activity; details: K562, partner TALEN R
[30] = test system: TALEN L 102211 (synthetic (Xanthomonas TALE scaffold)); test: cell_activity; details: K562, partner TALEN R
[31] = test system: TALEN L 102213 (synthetic (Xanthomonas TALE scaffold)); test: cell_activity; details: K562, partner TALEN R
[32] = test system: TALEN L 102214 (synthetic (Xanthomonas TALE scaffold)); test: cell_activity; details: K562, partner TALEN R
[33] = test system: TALEN L 102215 (synthetic (Xanthomonas TALE scaffold)); test: cell_activity; details: K562, partner TALEN R
[34] = test system: TALEN L 102216 (synthetic (Xanthomonas TALE scaffold)); test: cell_activity; details: K562, partner TALEN R
[35] = test system: TALEN L 102217 (synthetic (Xanthomonas TALE scaffold)); test: cell_activity; details: K562, partner TALEN R
[36] = test system: TALEN L 102219 (synthetic (Xanthomonas TALE scaffold)); test: cell_activity; details: K562, partner TALEN R
[37] = test system: TALEN L 102224 (synthetic (Xanthomonas TALE scaffold)); test: cell_activity; details: K562, partner TALEN R
[38] = test system: TALE tetramer library CAGC (repeats 5-8 varied) (synthetic (Xanthomonas TALE scaffold)); test: ELISA; details: mean of 137 library clones, SE 0.02
[39] = test system: TALE tetramer library TCAT (repeats 1-4 varied) (synthetic (Xanthomonas TALE scaffold)); test: ELISA; details: mean of 44 library clones, SE 0.22
[40] = test system: TALE tetramer library CAGA (repeats 5-8 varied) (synthetic (Xanthomonas TALE scaffold)); test: ELISA; details: mean of 146 library clones, SE 0.02
[41] = test system: TALE tetramer library CTTC (repeats 1-4 varied) (synthetic (Xanthomonas TALE scaffold)); test: ELISA; details: mean of 132 library clones, SE 0.07
[42] = test system: TALE tetramer library ATAC (repeats 5-8 varied) (synthetic (Xanthomonas TALE scaffold)); test: ELISA; details: mean of 43 library clones, SE 0.06
[43] = test system: TALE tetramer library TACA (repeats 5-8 varied) (synthetic (Xanthomonas TALE scaffold)); test: ELISA; details: mean of 85 library clones, SE 0.06
[44] = OT2, L*/L* homodimer, about 180-fold below L

Question: For “CTTGATTCCACCTGTAGCTCCGAGCAAA (double strand) [OT2 left half]”, which activity ([1]; OT2, L/L homodimer) is on record?
Answer: 3.18 % indels

Question: What about the activity [2, 44] of the same sequence?
Answer: 0.017 % indels

Question: Which activity ([1]; K562, L/R) does the source give for “TTCATTACACCTGCAGCT (double strand) [TALEN L binding site (CCR5)]” here?
Answer: 50.6 % indels

Question: And the activity [3]?
Answer: 20.3 % indels

Question: What about the activity [4] of the same sequence?
Answer: 1.3 % indels

Question: And the activity [5]?
Answer: 17.3 % indels

Question: And the activity [6]?
Answer: 16.8 % indels

Question: And the activity [7]?
Answer: 17.2 % indels

Question: And the activity [8]?
Answer: 4.2 % indels

Question: And the activity [9]?
Answer: 22.4 % indels

Question: What about the activity [10] of the same sequence?
Answer: 33.6 % indels

Question: What about the activity [11] of the same sequence?
Answer: 25.9 % indels

Question: What about the activity [12] of the same sequence?
Answer: 30.1 % indels

Question: And the activity [13]?
Answer: 30.9 % indels

Question: What about the activity [14] of the same sequence?
Answer: 22.9 % indels

Question: And the activity [15]?
Answer: 24.5 % indels

Question: What about the activity [16] of the same sequence?
Answer: 10.7 % indels

Question: And the activity [17]?
Answer: 21.6 % indels

Question: And the activity [18]?
Answer: 23.8 % indels

Question: What about the activity [19] of the same sequence?
Answer: 25.1 % indels

Question: And the activity [20]?
Answer: 27 % indels

Question: And the activity [21]?
Answer: 26.1 % indels

Question: What about the activity [22] of the same sequence?
Answer: 32.4 % indels

Question: And the activity [23]?
Answer: 16.6 % indels

Question: And the activity [24]?
Answer: 36.6 % indels

Question: And the activity [25]?
Answer: 40.2 % indels

Question: What about the activity [26] of the same sequence?
Answer: 23.5 % indels

Question: And the activity [27]?
Answer: 27.9 % indels

Question: And the activity [28]?
Answer: 28.4 % indels

Question: And the activity [29]?
Answer: 33.6 % indels

Question: What about the activity [30] of the same sequence?
Answer: 23.2 % indels

Question: And the activity [31]?
Answer: 34.1 % indels

Question: And the activity [32]?
Answer: 31.2 % indels

Question: And the activity [33]?
Answer: 29 % indels

Question: And the activity [34]?
Answer: 35.4 % indels

Question: And the activity [35]?
Answer: 34.5 % indels

Question: And the activity [36]?
Answer: 37.8 % indels

Question: What about the activity [37] of the same sequence?
Answer: 38.7 % indels

Question: What about the activity ([2]; K562, L*/R*, cold shock, 58.66 with R) of the same sequence?
Answer: 65.2 % indels

Question: For “CATAGTCCCCTTGACCAGCTCCTCGGTGTAGTTTTCACAGTCAGTCCACACGTC (double strand) [CAGC target]”, which binding signal (fraction of canonical control) [38] is on record?
Answer: 0.03

Question: How did the binding signal (fraction of canonical control) [39] turn out when “CATAGTCCCCTTCATATCCTCCTCGGTGTAGTTTTCACAGTCAGTCCACACGTC (double strand) [TCAT target]” was run?
Answer: 1.03

Question: With “CATAGTCCCCTTGACCAGATCCTCGGTGTAGTTTTCACAGTCAGTCCACACGTC (double strand) [CAGA target]” as the sequence, how does the binding signal (fraction of canonical control) [40] read?
Answer: 0.18

Question: What does the source list for “CCCGATGAAGCCCCAGGTGTTTTAAAT (double strand) [OT2 right half]”?
Answer: activity ([1]; OT2, L/L homodimer): 3.18 % indels; activity [2, 44]: 0.017 % indels

Question: “CATAGTCCCCTCTTCATCCTCCTCGGTGTAGTTTTCACAGTCAGTCCACACGTC (double strand) [CTTC target]” was tested. Which binding signal (fraction of canonical control) [41] did it give?
Answer: 0.55

Question: Which binding signal (fraction of canonical control) [42] does the source give for “CATAGTCCCCTTGACATACTCCTCGGTGTAGTTTTCACAGTCAGTCCACACGTC (double strand) [ATAC target]” here?
Answer: 0.56

Question: For “CATAGTCCCCTTGACTACATCCTCGGTGTAGTTTTCACAGTCAGTCCACACGTC (double strand) [TACA target]”, which binding signal (fraction of canonical control) [43] is on record?
Answer: 0.5

Source: patent US20150307561
